Source: PMC9501438

Tests used:
[1] = target: Arkadia 119 aa polypeptide (human) (UniProt Q6ZNA4); test: ITC; Microcal PEAQ ITC, 25 °C; 75-200 uM Arkadia polypeptide in the cell, 0.75-2 mM UBCH5B from the syringe in 2 uL injections; single site-binding model
[2] = target: Arkadia RING 68 aa (human) (UniProt Q6ZNA4); test: as above
Arkadia RING 68 aa (human), sequence (Q6ZNA4 927-994): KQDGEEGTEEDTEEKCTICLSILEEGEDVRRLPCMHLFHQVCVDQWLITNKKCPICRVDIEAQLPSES

UBCH5B, sequence (P62837 whole entry): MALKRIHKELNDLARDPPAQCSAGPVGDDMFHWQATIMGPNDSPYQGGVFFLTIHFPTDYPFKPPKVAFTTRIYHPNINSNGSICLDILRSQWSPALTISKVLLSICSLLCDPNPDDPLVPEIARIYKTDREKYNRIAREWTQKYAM
Arkadia 119 aa polypeptide (human), sequence (Q6ZNA4 876-994): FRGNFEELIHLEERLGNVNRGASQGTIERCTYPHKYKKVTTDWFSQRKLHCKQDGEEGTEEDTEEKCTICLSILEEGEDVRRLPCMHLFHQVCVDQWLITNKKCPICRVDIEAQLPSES

dH [1]: -4.7 kcal/mol
stoichiometry N [1]: 0.6
dH [2]: 3.1 kcal/mol
stoichiometry N [2]: 1
Substance: UBCH5B (from UniProt P62837 1-147) (enzyme)
